Measured values taken from patent US6884600B1, “Protein phosphatase-1 catalytic subunit interactions” (Medical Research Council London, priority 1996, dated 2005).

How the values were obtained:
PP1c [1] = target: T1, PP1c (Oryctolagus cuniculus, UniProt P62143); experiment: Phosphorylase phosphatase activity of PP1c; type: biochemical, rabbit
T1 construct: from tissue; host or cells: rabbit skeletal muscle (PP1G dissociated with LiBr)
Description: (§1) A,B; Effects of M110-(M1-E309) (closed circles), M110-(M1-F38) (open circles) and M110-(D39-E309) (open triangles) on the MLC20 phosphatase […] and phosphorylase phosphatase (B) activities of PP1c were measured after incubating PP1c for 15 minutes at 30° C. with each fragment. The results are presented as a percentage of those obtained in experiments where the M110 fragments were omitted.
(§2) C,D; The effect of M110-(M1-A150) (open circles) and M110-(L24-Y496) (closed circles) on the MLC20 phosphatase (C) and phosphorylase phosphatase (D) activities of PP1c were measured as in A,B.
(B) The phosphorylase phosphatase activity of PP1c was assayed as in A in the presence or absence of 1 μM GM-(G63-T93) and 1.0 nM M110-(M1-E309). The results are presented (SEM for three experiments) as a percentage of the PP1c activity measured in the absence of GM-(63-T93), M110-(M1-F38) or M110-(M1-E309).
(§3) The myosin-associated form of PP1 (PP1M) was from chicken gizzard and the glycogen-associated form of PP1 (PP1G) from rabbit skeletal muscle. The β isoform of PP1c was released from PP1G by incubation for 2 hours in 2M LiBr, then purified by gel-filtration on a 30×1 cm column of Superose 12 (Pharmacia, Milton Keynes, U.K.) in the presence of 0.5M LiBr. Glycogen protein particles from rat liver were used as the source of hepatic PP1G Digoxygenin-labelled PP1c (γ1-isoform, hereafter termed PP1) was prepared as in [9]. GL was expressed in E. coli as a glutathione-S-transferase (GST) fusion protein [7], termed GST-GL. The catalytic subunit of PP2A from bovine heart (PP2AC) was provided by Dr R. MacKintosh in this Unit. The phosphorylatable myosin light chain (MLC20) and heavy meromyosin from chicken gizzard were a gift from Dr M. Ikebe (Case Western Reserve University, Cleveland, USA). Thrombin and benzamidine-Agarose were purchased from Sigma (Poole, UK).
(§4) ^32P-labelled rabbit skeletal muscle phosphorylase a (containing 1.0 mol phosphate per mol subunit) was prepared by phosphorylation with phosphorylase kinase, ^32P-labelled rabbit skeletal muscle glycogen synthase (containing 1.5 mol/mol subunit in the sites 3 region) was prepared by phosphorylation with glycogen synthase kinase-3 [24]). ^32P-labelled chicken gizzard MLC20 and ^32P-labelled chicken gizzard heavy meromyosin (containing 1.0 mol phosphate per mol subunit) were prepared by phosphorylation with smooth muscle myosin light chain kinase. The dephosphorylation of phosphorylase a (10 μM), glycogen synthase (1 μM) and MLC20 (1 μM) and heavy meromyosin (1 μM) was carried out as in [24]. One unit of activity (U) was that amount which released […] of phosphate in one minute.
(§5) PP1c was isolated from the rabbit skeletal muscle PP1-GM complex as described previously (Johnson et al, 1996). Glycogen particles isolated from rat liver (Schelling el al, 1988) served as the source of PP1-GL. The dephosphorylation of glycogen phosphorylase (10 μM) and the isolated MLC20 of smooth muscle myosin (1 μM) by PP1c was carried out as described previously (Cohen et al., 1988; Alessi et al., 1992).

PP1c [2] = target: T1, PP1c; experiment: MLC20 (myosin P-light chain) phosphatase activity of PP1c; type: biochemical
Description: as §1, §2
(A) The MLC20 phosphatase activity of PP1c was assayed after incubation for 15 minutes at 30° C. in the presence or absence of 1 μM GM-(G63-T93) and either 0.1 μM M110-(M1-F38) or 0.1 nM M110-(M1-E309).
(1-38, open circles) or M110[M1-K35] (1-35, closed circles) were incubated with PP1c for 15 min at 30° C. and reactions started with the ^32P-labelled MLC20 substrate. The results are expressed as a % of the activity determined in control incubations where the M110 peptides were omitted (100%). Similar results were obtained in three separate experiments.
as §3, §4, §5
^32P-labelled myosin P-light chains containing 1.0 mol phosphate per mol subunit was prepared by phosphorylation with smooth muscle myosin light chain kinase. The dephosphorylation of myosin P-light chain (1 μM) was carried out as in [4] and one unit of activity (U) was that amount which catalysed the release of 1 μmole of phosphate in one min. When assaying PP1M in immunoprecipitates from the myofibrillar extracts, the tubes were shaken continuously and 3 nM okadaic acid was included to inhibit any PP2A present.

T1 sequence (P62143 whole entry): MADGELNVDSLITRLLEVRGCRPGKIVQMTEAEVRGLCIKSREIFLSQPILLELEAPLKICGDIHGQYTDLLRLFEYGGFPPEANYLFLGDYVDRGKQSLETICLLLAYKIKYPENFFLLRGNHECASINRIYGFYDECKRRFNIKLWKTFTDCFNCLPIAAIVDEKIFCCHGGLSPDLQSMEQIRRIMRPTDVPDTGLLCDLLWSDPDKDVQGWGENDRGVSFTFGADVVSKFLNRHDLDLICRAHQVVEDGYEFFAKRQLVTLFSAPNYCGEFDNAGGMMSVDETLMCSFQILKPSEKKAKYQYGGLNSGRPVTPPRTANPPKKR

| Molecule | effect on the phosphorylase phosphatase activity of PP1c (PP1c [1]) | concentration needed to modulate the specificity of PP1c compared to thrombin-cleaved M110-(M1-E309) (PP1c [2]) [fold higher] | effect on the MLC20 phosphatase activity of PP1c (PP1c [2]) |
| --- | --- | --- | --- |
| M110-(M1-A150): rat aorta M110 fragment, residues 1-150 (protein, UniProt Q10728 1-150, looked up, fragment) MKMADAKQKRNEQLKRWIGSETDLEPPVVKRQKTKVKFDDGAVFLAACSSGDTDEVLKLLHRGADINYANVDGLTALHQACIDDNVDMVKFLVENGANINQPDNEGWIPLHAAASCGYLDIAEFLIGQGAHVGAVNSEGDTPLDIAEEEA | modified the specificity of PP1 similarly | 10 | modified the specificity of PP1 similarly |
| M110-(L24-Y496): rat aorta M110 fragment, residues 24-496 (protein, UniProt Q10728 24-496, looked up, fragment) LEPPVVKRQKTKVKFDDGAVFLAACSSGDTDEVLKLLHRGADINYANVDGLTALHQACIDDNVDMVKFLVENGANINQPDNEGWIPLHAAASCGYLDIAEFLIGQGAHVGAVNSEGDTPLDIAEEEAMEELLQNEVNRQGVDIEAARKEEERIMLRDARQWLNSGHISDVRHAKSGGTALHVAAAKGYTEVLKLLIQAGYDVNIKDYDGWTPLHAAAHWGKEEACRILVDNLCDMETVNKVGQTAFDVADEDILGYLEELQKKQNLLHSEKRDKKSPLIESTANMENNQPQKTFKNKETLIIEPEKNASRIESLEQEKADEEEEGKKDESSCSSEEDEEDDSESEAETDKTKPMASVTNAHTASTQAAPAAVTTPTLSSNQGTPTSPVKKFPTSTTKISPKEEERKDESPASWRLGLRKTGSYGALAEITASKEAQKEKDTAGVIRSASSPRLSSSLDNKEKEKDNKGTRLAY | inhibited the phosphorylase phosphatase activity of PP1c in a similar manner to M110-(M1-A150) |  | less effective than M110-(M1-A150) or M110-(M1-E309) in stimulating the MLC20 phosphatase activity of PP1c |
